Patent publication US9827292B2, “Use of KGF in the treatment of menopausal disorders” (Università degli Studi di Roma “La Sapienza”, priority 2012, dated 2017)

B1: keratinocyte growth factor (protein, listed as Homo sapiens)
chain: MHKWILTWILPTLLYRSCFHIICLVGTISLACNDMTPEQMATNVNCSSPERHTRSYDYMEGGDIRVRRLFCRTQWYLRIDKRGKVKGTQEMKNNYNIMEIRTVAVGIVAIKGVESEFYLAMNKEGKLYAKKECNEDCNFKELILENHYNTYASAKWTHNGGEMFVALNQKGIPVRGKKTKKEQKTAHFLPMAIT
notes: human recombinant KGF (Upstate Biotechnology)

Tests used:
[1] = tested on: human oestrogen-sensitive keratinocytes (KCs); assay: Proliferation of primary vaginal keratinocytes (Ki67 immunofluorescence; crystal violet); format: cell-based; conditions: for proliferative effect in the presence of tamoxifen: tamoxifen 100 nM, anti-Ki67 and crystal violet, FIG. 1D
Experimental: The oestrogen receptor α-positive MCF-7 human breast adenocarcinoma cell line, acquired from American Type Culture Collection (no. HTB-22, ATCC-LGC Promochem, Teddington, UK), was cultured in Dulbecco's modified eagle's medium (DMEM; Invitrogen, Karlsruhe, Germany), supplemented with 10% foetal bovine serum (FBS; Invitrogen) and antibiotics. Primary cultures of human oestrogen-sensitive keratinocytes (KCs) were established from 1 cm^2 full-thickness mucosal biopsy of the vaginal vestibule. Following enzymatic dissociation, the keratinocytes were seeded onto culture plates coated with collagen IV (10 mg/ml), as previously reported [Panici et al, 2007], and were maintained in basal medium of the keratinocytes (KBM, Lonza) supplemented with aliquots of KGM (Lonza), with medium change twice a week. For all the experiments with 17β-oestradiol (E2) and tamoxifen, the MCF-7 cells were cultivated in DMEM without phenol red with 10% FBS treated with dextran/carbon (Invitrogen), and the KCs were transferred to a steroid medium of reduced concentration (KGM without EGF and BPE). […]
The cells, grown on glass coverslips, were treated as described above, then fixed in 4% paraformaldehyde in phosphate-buffered saline (PBS) for 30 min at 25° C., followed by treatment with 0.1 M glycine in PBS for 20 min at 25° C. and with 0.1% Triton X-100 in PBS for an additional 5 min at 25° C. to allow permeabilisation. To assess cell proliferation, the cells were incubated with an anti-Ki67 rabbit polyclonal antibody (1:50 in PBS; Zymed Laboratories, San Francisco, Calif.), which identifies cycling cells. The primary antibody was visualised using Texas Red conjugated goat anti-rabbit IgG (1:100 in PBS; Jackson ImmunoResearch Laboratories, West Grove, Pa.). The nuclei were visualised using 4′,6-diamido-2-phenylindole dihydrochloride (DAPI) (1:10000 in PBS; Sigma-Aldrich). Fluorescence signals were analysed by recording stained images using a cooled CCD colour digital camera SPOT-2 (Diagnostic Instruments Incorporated, Sterling Heights, Mich.) and Axiovision software (Carl Zeiss Inc., Oberkochen, Germany).
The percentage of Ki67-positive cells was evaluated by counting, for each treatment, a total of 500 cells, randomly taken from ten microscopic fields in three different experiments, expressed as mean value±95% CI and recorded as graphs. For the experiments concerning localisation of ERα, the cytoskeleton of actin was visualised using TRITC phalloidin (1:100 in PBS) and ERα was visualised using an anti-ERα monoclonal antibody (Santa Cruz) (1:100 in PBS). The stained single and combined images were captured using Zeiss Apotome® and AxioVision software (Carl Zeiss, Jena, Germany) using 40× lenses.
To evaluate the cytotoxicity of cells treated with tamoxifen, the MCF-7 cells were treated as described above, fixed for 10 min in a solution of 10% acetic acid-10% methanol, stained with crystal violet (1% w/v) and photographed using a Power Shot G5 digital camera (Canon, Inc., Tokyo, Japan).

[2] = tested on: ERalpha; assay: Nucleocytoplasmic fractionation and Western blot for ER in MCF-7 cells; format: cell-based, human; conditions: 5 or 30 min treatment, FIG. 4A
Experimental: The oestrogen receptor α-positive MCF-7 human breast adenocarcinoma cell line, acquired from American Type Culture Collection (no. HTB-22, ATCC-LGC Promochem, Teddington, UK), was cultured in Dulbecco's modified eagle's medium (DMEM; Invitrogen, Karlsruhe, Germany), supplemented with 10% foetal bovine serum (FBS; Invitrogen) and antibiotics. Primary cultures of human oestrogen-sensitive keratinocytes (KCs) were established from 1 cm^2 full-thickness mucosal biopsy of the vaginal vestibule. […]
MCF-7 cells untreated or treated with KGF or E2 were lysed in RIPA buffer. […] The bound antibody was detected by enhanced chemiluminescence detection reagents (Pierce Biotechnology, Inc, Rockford, Ill., USA), according to manufacturer's instructions. […] Densitometric analysis was performed using Quantity One Program (Bio-Rad Laboratories srl, Segrate, MI, Italy).
The cells were harvested in PBS and centrifuged at 2000 rpm for 5 minutes to obtain a pellet, resuspended in cellular lysis buffer containing Hepes 10 mM pH 8, 50 mM NaCl, 1 mM EDTA pH 8, 0.2% TritonX100, sucrose 500 mM and protease inhibitors, stirred, and placed in ice for 15 min. […] The efficiency of the fractionation was analysed by means of immunoblotting using an anti-β-tubulin antibody as cytoplasmic marker and an anti-lamin B antibody as nuclear marker.

| Molecule | efficacy in terms of cell proliferation of E2 compared to KGF (Ki67-positive cells) ([1]; low doses (0.5 ng/ml), 24 h, FIG. 1A) | proliferative effect in the presence of tamoxifen [1] | redistribution of ER between cytoplasmic and nuclear fractions [2] | proliferative effect compared to E2 (Ki67-positive cells) ([1]; 20 ng/ml for KGF and 2.7 ng/ml for E2, FIG. 1A) | stimulation of proliferation of the vaginal epithelium in pre-menopausal and post-menopausal populations ([1]; 20 ng/ml, KC from pre-menopausal and post-menopausal women, FIG. 1B) |
| --- | --- | --- | --- | --- | --- |
| C[C@]12CC[C@@H]3c4ccc(O)cc4CC[C@H]3[C@@H]1CC[C@@H]2O [E2, 17β-oestradiol] | 1.2 fold increase | inhibited by the presence of tamoxifen | dramatic redistribution of ER in the nucleus |  |  |
| B1 |  | able to stimulate cell proliferation even in the presence of tamoxifen | does not appear able to induce any significant redistribution of the receptor in the nucleus | absolutely comparable to that of the hormone | able to stimulate proliferation of the vaginal epithelium in a manner comparable to that of oestradiol |
